Results reported in US20250340660A1 (published 2025).
Residue numbers refer to the chain shown, from its start.

B1: anti-CD30L antibody clone 82 (antibody, V domains shown)
VH: EVQLVESGGGLVQPGGSLRLSCAVSGITFSNAWMSWVRQAPGKGLEWVGRIKSKTYGGTTDYAAPVKGRFIISRDDSKDTLYLQMNSLKTEDTAIYYCTTDPWNYVNYNYFMDVWGKGTTVTVSS
VL: DIQMTQSPSSLSASVGDRVTITCRASQDIRNYLAWYQQKPGKITHLLVYAASTLQSGVPSRFSGSGSGTDFTLTINSLQPEDVATYYCQNYFSVPLTFGGGTKVEIK
notes: Purified recombinant antibody
B2: anti-CD30L antibody clone 64 (antibody, V domains shown)
VH: EVQLVESGGGLVQPGGSLRLSCAASGFTFSNYAMTWVRQAPGKGLEWVSAISGFGGSTYYADSVKGRFTISRDNSKNTLYLQMNSLRAEDTAVYYCAKDHDYYAFDYWGQGTLVTVSS
VL: not shown
notes: Purified recombinant antibody
B3: anti-CD30L antibody clone 65 (antibody, V domains shown)
VH: B2 VH with R19K, F54Y, D62A, Y80F, T115P
VL: not shown
notes: Purified recombinant antibody
B4: anti-CD30L antibody clone 80 (antibody, V domains shown)
VH: EVQLVESGGGLVQPGGSLRLSCEVSGFTFSSYDMHWVRQVTGTGLEWVSSIGIGGDTYYPGSVKGRFTISRENAKNSLYLQMNSLRGGDTGVYYCARGEWDLLWYFMDVWGKGTTVTVSS
VL: DIQMTQSPSSLSASIGDRVTITCRASQGISSWLAWYQQKPGKAPKLLIYAASSLQSGVPSRFSGSGSGTDFTLTISSLQPEDFATYYCQQANSFPLTFGGGTKVEIK
notes: Purified recombinant antibody
B5: anti-CD30L antibody clone 63 (antibody, V domains shown)
VH: EVQLVESGGGLVQPGGSLRLSCAASGFMFSSYSMNWVRQAPGKGLEWVSYISSSSSTIYDADSVKGRFTISRDDAKNSLYLQMNSLRDEDTAVYYCTREAYPGYYYNYMDVWGKGTTVTVSS
VL: DIQMTQSPSSLSASVGDRVTITCRASQSISSRLAWYQQKPGKAPNLLIYKASNLESGVPSRFSGSGSGTEFTLTISSLQPDDFATYYCQQYNSYSRTFGQGTKVEIK
notes: Purified recombinant antibody
B6: anti-CD30L antibody clone 1 (antibody, V domains shown)
VH: QVQLQESGPGLVKPSETLSLTCTVSGGSISGYYWSWIRQPPVKGLEWIGYIFYSGYTKYNPSLKSRVTISVDTSKNQFSLKLSSVTAADTAVYYCARDRWDFDYWGQGALVTVSS
VL: AIQMTQSPSYLSASVGDRVTIACRASQGIRNNLGWYQQKPGKAPKLLIYAESSLQSGVPSRFSGSGSGTDFTLTISSLQPEDFATYYCLQDFNYPYTFGQGTKLEIK
B7: anti-CD30L antibody clone 1 germlined (antibody, V domains shown)
VH: B6 VH with V42G, A109T
VL: B6 VL with Y10S, A22T
B8: anti-CD30L antibody clone 2 (antibody, V domains shown)
VH: EVQLVESGGGLVQPGRSLRLSCAASGFNFDDYAMHWVRQAPGKGLEWVSGISWRSGNIGYAGSVKGRFTISRDNAKNSLYLQMNSLRPEDSALYYCAKDKGIGFNWNYEGFDYWGQGTLVTVSS
VL: B4 VL with I15V, S31N, W32H, Y36F, L46S, R61K, A91Y, N92V, S93T, F94Y
B9: anti-CD30L antibody clone 2 germlined (antibody, V domains shown)
VH: B8 VH with G62D, P88A, S91T
VL: B4 VL with I15V, S31N, W32H, Y36F, L46S, A91Y, N92V, S93T, F94Y
B10: anti-CD30L Reference 1 antibody (antibody, human IgG1, lambda, V domains shown)
VH: QVQLQESGPGLVKPSETLSLTCTVSGGSISSYIWSWIRQPAGKGLEWIGRIYASGNTNYNPSLKSRVTISVDTSKNQFSLKLSSMTAADTAVYYCARDYRVAGTYYYYYGLDVWGQGTTVTVSS
VL: QSALTQPASVSGSPGQSITISCTGTSSDVGVYDYVSWYQQHPGKAPKLMIYEVSNRPSGVSNRFSGSKSGNTASLTISGLQTEDEADYYCSSYTSRSTWVFGGGTKLTVLG
B11: anti-CD30L antibody Clone 1 (parental, hybridoma) (antibody, V domains shown)
VH: B6 VH
VL: B6 VL
notes: Tested as diluted hybridoma supernatant from mice with a humanized immunoglobulin locus
B12: anti-CD30L antibody Clone 3 (parental, hybridoma) (antibody, V domains shown)
VH: B6 VH
VL: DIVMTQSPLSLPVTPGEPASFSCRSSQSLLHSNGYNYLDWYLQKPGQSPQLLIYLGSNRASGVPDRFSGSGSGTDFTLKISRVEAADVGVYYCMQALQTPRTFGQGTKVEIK
notes: as for B11
B13: anti-CD30L antibody Clone 2 (parental, hybridoma) (antibody, V domains shown)
VH: B8 VH
VL: B4 VL with I15V, S31N, W32H, Y36F, L46S, R61K, A91Y, N92V, S93T, F94Y
notes: as for B11
B14: anti-CD30L antibody Clone 4 (parental, hybridoma) (antibody, V domains shown)
VH: QVQLVESGGGVVQPGRSLRLSCAASGFPFSSYGMHWVRQAPGKGLEWVTFIWFDGNNKDYADSVKGRFSVSRDNSKNTLYLQMNSLRADDTAVYYCARNGVYYGSGAYVDYWGQGTLVTVSS
VL: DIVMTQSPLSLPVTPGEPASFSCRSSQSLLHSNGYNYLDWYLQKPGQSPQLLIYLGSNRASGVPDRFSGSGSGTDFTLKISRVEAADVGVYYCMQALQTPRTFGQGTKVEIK
notes: as for B11
B15: anti-CD30L antibody clone 64 (antibody, V domains shown)
VH: B2 VH
VL: not shown
notes: purified recombinant IgG, humanized mouse strain #1; also called Clone ID 64
B16: anti-CD30L antibody clone 63 (antibody, V domains shown)
VH: B5 VH
VL: B5 VL
notes: purified recombinant IgG, humanized mouse strain #1; also called Clone ID 63

What follows are binders tested against T1, human CD30L (recombinant protein) (human, UniProt P32971 63-234) (assay: Carterra, human CD30L).
T1 construct: also called rhCD30L; TNFSF8
T1 sequence: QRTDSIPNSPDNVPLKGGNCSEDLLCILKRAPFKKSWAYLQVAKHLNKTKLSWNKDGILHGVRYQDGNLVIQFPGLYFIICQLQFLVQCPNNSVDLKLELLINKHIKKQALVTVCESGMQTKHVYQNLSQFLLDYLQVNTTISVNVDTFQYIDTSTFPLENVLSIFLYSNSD

First: B1
Second: B2
The Kd of the first is 2.8-fold lower: 0.559 nM for the first, 1.57 nM for the second.

First: B3
Second: B4
The Kd of the first is 2.3-fold lower: 1.52 nM for the first, 3.54 nM for the second. The first binds more tightly here.

B5 was tested, and the Kd was 1.85 nM.

What follows are binders tested against T2, human CD30L expressed on B16 cells (human, UniProt P32971 1-234) (assay: cell-based or functional assay).
T2 sequence (looked up): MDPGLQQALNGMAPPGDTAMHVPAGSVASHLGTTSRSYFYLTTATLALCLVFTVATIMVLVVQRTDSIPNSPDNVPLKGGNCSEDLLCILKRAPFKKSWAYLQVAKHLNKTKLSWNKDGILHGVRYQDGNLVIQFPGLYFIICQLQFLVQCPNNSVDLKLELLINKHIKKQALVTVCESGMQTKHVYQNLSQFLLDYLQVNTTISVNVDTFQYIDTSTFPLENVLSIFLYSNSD

B6 and B7 are within 1.5-fold of each other in “Inhibition of IL-8 release in a dual cell assay (B16-huCD30L cells + K299 cells) IC50” value: 1.43 nM for the first, 1.29 nM for the second.

B8 and B9 are within 1.5-fold of each other in “Inhibition of IL-8 release in a dual cell assay (B16-huCD30L cells + K299 cells) IC50” value: 0.81 nM for the first, 0.89 nM for the second.

With B10 the “Inhibition of IL-8 release in a dual cell assay (B16-huCD30L cells + K299 cells) IC50” value was 1.61 nM.

The binders below were run against T3, cynomolgus CD30L expressed on HEK293 cells (cynomolgus, UniProt A0A7N9CVX7 1-234) (assay: cell-based or functional assay).
T3 sequence: T2 sequence (looked up) with A19T, M20T, G32E, L41F, V75I, K78R, I204V, I227V

B6 and B7 are within 1.5-fold of each other in “Inhibition of IL-8 release in a dual cell assay (HEK293-cyCD30L cells + K299 cells) IC50” value: 0.39 nM for the first, 0.43 nM for the second.

B8 and B9 are within 1.5-fold of each other in “Inhibition of IL-8 release in a dual cell assay (HEK293-cyCD30L cells + K299 cells) IC50” value: 0.31 nM for the first, 0.41 nM for the second.

For B10, the “Inhibition of IL-8 release in a dual cell assay (HEK293-cyCD30L cells + K299 cells) IC50” value was 0.79 nM.

Each binder was assayed against T4, recombinant human CD30L protein (human, UniProt P32971 63-234, limits assumed) (assay: ELISA, hybridoma supernatant 1/50 dil, recombinant human CD30L).
T4 construct: also called huCD30L; rhCD30L
T4 sequence (looked up): T1 sequence

First: B11
Second: B12
The “Elisa Binding (OD)” value of the first is higher: 3.59 OD for the first, 3.5 OD for the second.

First: B13
Second: B14
The “Elisa Binding (OD)” value of the first is lower: 2.15 OD for the first, 3.08 OD for the second.

What follows are binders tested against T4, recombinant human CD30L protein (assay: ELISA, hybridoma supernatant 1/500 dil, recombinant human CD30L).

Compared with B11, B12 is lower in “Elisa Binding (OD)” value: 3.02 OD for the first, 2.54 OD for the second.

Compared with B13, B14 is higher in “Elisa Binding (OD)” value: 1.71 OD for the first, 2.65 OD for the second.

What follows are binders tested against T4, recombinant human CD30L protein (assay: ELISA, hybridoma supernatant 1/5000 dil, recombinant human CD30L).

Going from B11 to B12, the “Elisa Binding (OD)” value falls from 1.28 OD to 0.662 OD.

First: B13
Second: B14
The “Elisa Binding (OD)” value of the first is lower: 0.565 OD for the first, 0.68 OD for the second.

Each binder was assayed against T5, human CD30L expressed on cells (human, UniProt P32971 1-234) (assay: flow cytometry, hybridoma supernatant 1/50 dil, cells expressing human CD30L).
T5 construct: also called huCD30L; TNFSF8
T5 sequence: T2 sequence (looked up)

Compared with B11, B12 is lower in “Cell Binding (MFI)” value: 208 MFI for the first, 153 MFI for the second.

Going from B13 to B14, the “Cell Binding (MFI)” value falls from 280 MFI to 151 MFI.

These binders were tested against T6, cynomolgus CD30L expressed on cells (cynomolgus, UniProt A0A7N9CVX7 1-234) (assay: flow cytometry, hybridoma supernatant 1/50 dil, cells expressing cynomolgus CD30L).
T6 construct: whole, on cells; also called cyCD30L; cyno CD30L
T6 sequence: T2 sequence (looked up) with A19T, M20T, G32E, L41F, V75I, K78R, I204V, I227V

Compared with B11, B12 is lower in “Cell Binding (MFI)” value: 77.3 MFI for the first, 72.4 MFI for the second.

First: B13
Second: B14
The “Cell Binding (MFI)” value of the first is lower: 57.6 MFI for the first, 67.8 MFI for the second.

What follows are binders tested against T7, recombinant human CD30L (human, UniProt P32971 63-234, limits assumed) (assay: biosensor: antibody captured, CD30L bound, competitor rhCD30 added; signal of CD30 association (over 0.15 = non-blocking)).
T7 construct: also called rhCD30L; TNFSF8
T7 sequence (looked up): T1 sequence
Procedure: Briefly, individual anti-human biosensors were loaded with purified IgG (normalized to 10 μg/mL) and a baseline was measured for each biosensor. Biosensors were saturated with biotin and with polyclonal huIgG and a baseline was measured. […] Biosensors were moved to buffer wells to measure the dissociation rate.

Going from B15 to B16, the “rhCD30L:rhCD30 Blocking” value falls from 0.0633 relative units to 0.0592 relative units.
